Consider 2 substances from paper PMC4933286.

Assay [1] deals with BTV-1 VP5 mutant 2 (R10L/K13L/K14L) (bluetongue virus serotype 1 (BTV-1)). Nature of the assay: native gel or EMSA. (A gel shift assay detects complexes by their altered migration in electrophoresis.)
Assay [2] concerns the target BTV-1 VP5 mutant 3 (K3L/R6L/R10L/K13L/K14L) (bluetongue virus serotype 1 (BTV-1)). Nature of the assay: native gel or EMSA.

“BTV-1 VP5 mutant 2 (R10L/K13L/K14L) (natural protein)” gave a stoichiometry N in assay [1] of 3.

With “BTV-1 VP5 mutant 3 (K3L/R6L/R10L/K13L/K14L) (natural protein)”, the stoichiometry N in assay [2] is 3.

The stoichiometry N is a count of units in the complex or per binding partner.
